# Measured values as given in the supplement of paper PMC10567573.
# B1: PHTF1 (parent)
# chain: SRHLNSQVKKTTTRWCHIVRDSDS
# Variants of: B1
# Assay: protein stability index of a GFP-peptide fusion (GPS, HEK-293T) (PSI 1-6); higher = more stable
# Details: c terminus: a fixed tail appended
# 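Also: lentivirally expressed fusions sorted by FACS into six bins by GFP to DsRed ratio, PSI derived from sequencing read proportions per bin multiplied by bin number.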
row,Variant,protein stability index
1,SRHLNSQVKKTTFRWCHIVRDSDS [T13F],1.81
2,SRHLNSQVKKTTVRWCHIVRDSDS [T13V],3.04
3,SRHLNSQVKKTTPRWCHIVRDSDS [T13P],1.8
4,SRHLNSQVKKTTGRWCHIVRDSDS [T13G],2.75
5,SRHLNSQVKKTTDRWCHIVRDSDS [T13D],2.76
6,SRHLNSQVKKTTCRWCHIVRDSDS [T13C],2.73
7,SRHLNSQVKKTTIRWCHIVRDSDS [T13I],1.41
8,SRHLNSQVKKTTRRWCHIVRDSDS [T13R],2.14
9,SRHLNSQVKKTTWRWCHIVRDSDS [T13W],1.82
10,SRHLNSQVKKTTTLWCHIVRDSDS [R14L],2.14
11,SRHLNSQVKKTTTTWCHIVRDSDS [R14T],1.71
12,SRHLNSQVKKTTTWWCHIVRDSDS [R14W],1.65
13,SRHLNSQVKKTTTVWCHIVRDSDS [R14V],3.08
14,SRHLNSQVKKTTTFWCHIVRDSDS [R14F],2.04
15,SRHLNSQVKKTTTHWCHIVRDSDS [R14H],2.17
16,SRHLNSQVKKTTTSWCHIVRDSDS [R14S],1.91
17,SRHLNSQVKKTTTAWCHIVRDSDS [R14A],3.02
18,SRHLNSQVKKTTTQWCHIVRDSDS [R14Q],2.67
19,SRHLNSQVKKTTTDWCHIVRDSDS [R14D],3
20,SRHLNSQVKKTTTMWCHIVRDSDS [R14M],1.6
21,SRHLNSQVKKTTTGWCHIVRDSDS [R14G],2.57
22,SRHLNSQVKKTTTKWCHIVRDSDS [R14K],2.3
23,SRHLNSQVKKTTTIWCHIVRDSDS [R14I],1.94
24,SRHLNSQVKKTTTYWCHIVRDSDS [R14Y],2.05

row,Variant,protein stability index
1,SRHLNSQVKKTTTCWCHIVRDSDS [R14C],1.87
2,SRHLNSQVKKTTTNWCHIVRDSDS [R14N],2.94
3,SRHLNSQVKKTTTEWCHIVRDSDS [R14E],3.35
4,SRHLNSQVKKTTTPWCHIVRDSDS [R14P],2
5,SRHLNSQVKPTTTRWCHIVRDSDS [K10P],2.28
6,SRHLNSQVKNTTTRWCHIVRDSDS [K10N],2.72
7,SRHLNSQVKETTTRWCHIVRDSDS [K10E],2.63
8,SRHLNSQVKVTTTRWCHIVRDSDS [K10V],2.71
9,SRHLNSQVKITTTRWCHIVRDSDS [K10I],1.61
10,SRHLNSQVKLTTTRWCHIVRDSDS [K10L],1.8
11,SRHLNSQVKWTTTRWCHIVRDSDS [K10W],1.97
12,SRHLNSQVKTTTTRWCHIVRDSDS [K10T],1.98
13,SRHLNSQVKMTTTRWCHIVRDSDS [K10M],2.37
14,SRHLNSQVKFTTTRWCHIVRDSDS [K10F],1.78
15,SRHLNSQVKDTTTRWCHIVRDSDS [K10D],2.56
16,SRHLNSQVKRTTTRWCHIVRDSDS [K10R],1.8
17,SRHLNSQVKHTTTRWCHIVRDSDS [K10H],2.29
18,SRHLNSQVKGTTTRWCHIVRDSDS [K10G],2.55
19,SRHLNSQVKQTTTRWCHIVRDSDS [K10Q],2.19
20,SRHLNSQVKSTTTRWCHIVRDSDS [K10S],2.87
21,SRHLNSQVKCTTTRWCHIVRDSDS [K10C],2.11
22,SRHLNSQVKYTTTRWCHIVRDSDS [K10Y],1.69
23,SRHLNSQVKATTTRWCHIVRDSDS [K10A],2.76
